T1: N-terminally biotinylated hANGPTL4 peptide (R34-L66 of SEQ ID NO:476) (human, N-terminal biotin)
T1 construct: also called hANGPTL4-Nterm biotin
T1 peptide: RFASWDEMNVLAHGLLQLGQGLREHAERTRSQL

T2: hANGPTL3 peptide (R36-I68 of SEQ ID NO:485) (human)
T2 peptide: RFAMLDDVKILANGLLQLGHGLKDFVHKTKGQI

T3: N-terminally biotinylated hANGPTL3 peptide (R36-I68 of SEQ ID NO:485) (human, N-terminal biotin)
T3 construct: also called hANGPTL3-Nterm biotin
T3 peptide: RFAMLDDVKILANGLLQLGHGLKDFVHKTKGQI

T4: hANGPTL4 peptide (R34-L66 of SEQ ID NO:476) (human)
T4 peptide: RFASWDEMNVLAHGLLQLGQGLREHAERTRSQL

T5: amino acid residues 26-148 of human ANGPTL4 fused in-line to mouse IgG2a (hANGPTL4-mFc) (human)
T5 construct: contains the N-terminal coiled-coil region
T5 chain: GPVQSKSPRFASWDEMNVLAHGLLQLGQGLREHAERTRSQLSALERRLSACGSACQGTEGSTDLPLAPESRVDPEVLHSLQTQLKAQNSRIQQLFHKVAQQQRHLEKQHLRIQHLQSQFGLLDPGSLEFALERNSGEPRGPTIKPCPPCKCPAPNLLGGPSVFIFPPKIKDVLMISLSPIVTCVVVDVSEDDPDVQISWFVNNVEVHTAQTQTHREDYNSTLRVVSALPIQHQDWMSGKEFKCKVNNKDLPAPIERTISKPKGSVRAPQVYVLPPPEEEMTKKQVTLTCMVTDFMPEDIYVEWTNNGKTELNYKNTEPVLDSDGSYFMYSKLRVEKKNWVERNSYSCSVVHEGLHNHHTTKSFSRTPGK

T6: cynomolgus monkey ANGPTL4 N-terminal region (amino acid residues 1-130 of SEQ ID NO:490) with a C-terminal … (cynomolgus monkey (Macaca fascicularis), UniProt Q9BY76 26-130 (human entry))
T6 construct: also called MfANGPTL4(1-130)-His
T6 chain: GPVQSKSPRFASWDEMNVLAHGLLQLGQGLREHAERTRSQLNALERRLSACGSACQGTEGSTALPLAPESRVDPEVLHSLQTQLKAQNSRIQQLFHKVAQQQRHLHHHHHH

T7: full-length hANGPTL4 (amino acid residues 26-406 of SEQ ID NO:476) with a C-terminal hexa-histidine tag (human, UniProt Q9BY76 26-406)
T7 sequence: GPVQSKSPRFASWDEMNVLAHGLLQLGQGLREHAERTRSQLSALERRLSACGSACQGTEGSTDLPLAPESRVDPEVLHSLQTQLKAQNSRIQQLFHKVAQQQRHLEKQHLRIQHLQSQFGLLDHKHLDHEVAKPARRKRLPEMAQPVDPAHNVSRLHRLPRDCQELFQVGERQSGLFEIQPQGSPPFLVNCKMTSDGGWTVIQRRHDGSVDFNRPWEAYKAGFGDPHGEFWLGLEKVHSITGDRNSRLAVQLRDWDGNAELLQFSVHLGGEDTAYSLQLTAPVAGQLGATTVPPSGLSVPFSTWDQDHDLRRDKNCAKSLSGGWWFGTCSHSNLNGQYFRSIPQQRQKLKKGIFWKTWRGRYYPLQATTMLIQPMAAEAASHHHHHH


Columns and labels:
[1] = biological target: T1, N-terminally biotinylated hANGPTL4 …; experiment: SPR (Biacore), antibody captured on anti-human Fc, peptide injected
Procedure: (§1) Further, the binding affinities of H1H268P and H1H284P for various ANGPTL3 and ANGPTL4 peptides were also determined by BIACORE™ system. Briefly, H1H268P (1348±11 RU) and H1H284P (868±13 RU) were captured over anti-human Fc surface and various concentrations (62.5 nM-500 nM) of the hANGPTL3 and hANGPTL4 peptides were injected. […] Kinetic analysis was performed to measure kₐ and kd, and KD values and half-life of antigen/antibody complex dissociation were calculated. NB: No binding under the experimental conditions described.

[2] = biological target: T2, hANGPTL3 peptide (R36-I68 of SEQ ID …); experiment: as above
Procedure: as §1

[3] = biological target: T3, N-terminally biotinylated hANGPTL3 …; experiment: as above
Procedure: as §1

[4] = biological target: T4, hANGPTL4 peptide (R34-L66 of SEQ ID …); experiment: as above
Procedure: as §1

[5] = biological target: T5, amino acid residues 26-148 of human …; experiment: SPR (Biacore), 25° C., pH 7.2, antigen captured by anti-mFc
Procedure: (§2) Kinetic analysis was performed to measure kₐ and kd, and KD values and half-life of antigen/antibody complex dissociation were calculated. The results are shown in Table 4 (H1H268P) and Table 5 (H1H284P).

[6] = biological target: T6, cynomolgus monkey ANGPTL4 N-terminal …; experiment: SPR (Biacore), 25° C., pH 5.75, antigen amino-coupled 1,028 RU; Full mAb, not Fab; pH 5.75
Procedure: as §2

[7] = biological target: T5, amino acid residues 26-148 of human …; experiment: SPR (Biacore T100), hANGPTL4-mFc captured by anti-mouse IgG, antibody injected, 25° C.
Procedure: Antigen-antibody binding and dissociation were monitored in real time at 25° C. and 37° C. Kinetic analysis was performed to calculate KD and half-life of antigen/antibody complex dissociation.

[8] = biological target: T5, amino acid residues 26-148 of human …; experiment: cell-based or functional assay
[9] = biological target: T7, full-length hANGPTL4 (amino acid …); experiment: cell-based or functional assay
[10] = biological target: T6, cynomolgus monkey ANGPTL4 N-terminal …; experiment: SPR (Biacore), 25° C., pH 5.75, antigen amino-coupled 1,028 RU
Procedure: as §2

Row | binding result [2] | binding result [3] | Kd [5] [nM] | koff [5] [s⁻¹] | kon [5] [M⁻¹ s⁻¹] | t1/2 [5] [h] | Kd [6] [nM] | Kd [7] [nM] | t1/2 [7] [h] | IC50, antibody concentration required for 50% maximum inhibition of 2 nM hANGPTL4-mFc (LPL lipase test) [8] [nM] | IC50, antibody concentration required for 50% maximum inhibition of 10 nM hANGPTL4-His (LPL lipase test) [9] [nM] | t1/2 [10] [h] | Binder | further results
1 | no binding (tested: 62.5 nM-500 nM) | no binding (tested: 62.5 nM-500 nM) | 0.629 | 9.59e-05 | 153000 | 2 | 0.0772 | 0.275 | 1.33 | 1.2 | 0.2 | 2.33 | H1H268P (antibody, V domains shown, also called entire H1H268 mAb; Full mAb) VH: QVQLQESGAGLLKPSETLSLTCTVYGGSFSIHHWTWIRHPPGKGLEWIGEINHRGSTNYNPSLKSRVTISIDTSKNQFSLKLSAVTAADTAVYYCARGLRFLDWLSSYFDYWGQGTLVTVSS VL: DIQMTQSPSSLSASVGDRVTITCRASQGISDYLAWYQQKPGKVPNLLIYAASALQSGVPSRFSGSGSGTDFTLTISSLQPEDVATYYCQNYNTAPLTFGGGTKVEIK | Kd [1]: 64.8 nM; koff [1]: 0.000294 s⁻¹; kon [1]: 4530 M⁻¹ s⁻¹; t1/2 [1]: 0.65 h; Kd [4]: 56.3 nM; koff [4]: 0.000365 s⁻¹; kon [4]: 6490 M⁻¹ s⁻¹; t1/2 [4]: 0.533 h; koff [6]: 8.24e-05 s⁻¹; kon [6]: 1.07e+06 M⁻¹ s⁻¹
2 | no binding (tested: 62.5 nM-500 nM) | no binding (tested: 62.5 nM-500 nM) | 0.196 | 5.36e-05 | 274000 | 3.6 | 0.0543 | 0.168 | 2.7 | 0.8 | 0.5 | 2.28 | H1H284P (antibody, V domains shown, also called entire H1H284 mAb; Full mAb) VH: QVQLVESGGGVVQPGRSLRLSCAASGFTFSSYGMHWVRQAPGKGLEWMAVISFDGGNKNNADSVKGRFTISRDNSKNTLYLQMNSLRAEDTAVYYCAKEGDRSGHPYFYYYGLDVWGQGTTVTVS VL: DIQLTQSPSFLSASVGDRVTITCWASQGISSYLAWYQQKPGKAPKLLIYAASTLQSGVPSRFSGSGSETEFTLTISSLQPEDFATYYCQQLHSYPLTFGGGTKVEIK | binding result [1]: no binding (tested: 500 nM); binding result [4]: no binding (tested: 500 nM); koff [10]: 8.42e-05 s⁻¹; kon [10]: 1.55e+06 M⁻¹ s⁻¹

From patent publication US20130266574A1 (Regeneron, published 2013)
